# The supplement of paper PMC10724198
# ± gives the standard deviation of the averaged measurements.
# Test system: Saccharomyces cerevisiae
# Assay: protein stability index of tFT-peptide fusion (C-terminal peptide) (PSI (0-1 scale)); higher = more stable (slower turnover)
# Settings: genetic background: wild type; temperature: 30 C
# Method: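 MPS profiling in S. cerevisiae of the tFT-X12 degron library: putative degron peptides plus stable controls, 12 aa, fused to the C-terminus of a sfGFP-mCherry timer. Cells are FACS-sorted into 8 mCherry/sfGFP bins and deep-sequenced. PSI runs from 0 (unstable) to 1 (stable). Backgrounds are wild type, das1Δ and doa10Δ at 30 °C, and wild type, das1Δ, cdc34-1 and cdc53-1 at 37 °C; 2-3 technical replicates each.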
# 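Also: PSI is a weighted mean of sequencing reads over stability bins, variants kept only with over 10 reads, mCherry proximal and sfGFP distal, peptide attached via GGGS linker.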
row,Sequence,protein stability index
1,FFFFFIHFLCYF,0.239 ± 0.047
2,FFFFFLLFFLRV,0.233 ± 0.018
3,FFFFLVPVHCVI,0.249 ± 0.024
4,FFFFSVHLSFLD,0.176 ± 0.028
5,FFFLILFPLSYS,0.372 ± 0.0098
6,FFFLVRLCRLCV,0.261 ± 0.011
7,FFIMFFDFWGYF,0.373 ± 0.047
8,FFLRFGLFLFTL,0.367 ± 0.05
9,FFSCFFFSVLYR,0.302 ± 0.029
10,FFVYRFFSLSVC,0.0256 ± 0.0079
11,FGCCLYFCFWGL,0.372 ± 0.018
12,FHLVIYWCVRGP,0.281 ± 0.053
13,FICYDRILTVYY,0.368 ± 0.024
14,FIVVSFCFFLFF,0.263 ± 0.045
15,FKFGVFDFRFLC,0.0879 ± 0.036
16,FLFFLFVVFVFV,0.286 ± 0.013
17,FLFFRFLVGCCF,0.311 ± 0.0085
18,FLIFFVCLFRWK,0.235 ± 0.029
19,FLLLDFMLVSLV,0.412 ± 0.036
20,FLLLVVYVSLYS,0.156 ± 0.032
21,FLLSFFGLVFFW,0.374 ± 0.014
22,FLPLFFLPCLSV,0.319 ± 0.019
23,FLSPPPFLALLP,0.6908 ± 0.0045
24,FLSRHFLFLSFV,0.308 ± 0.031
25,FPFHSRPCLPVL,0.471 ± 0.012
26,FPTLVRKFINAI,0.0817 ± 0.014

row,Sequence,protein stability index
1,FRRSFPFPLFLR,0.197 ± 0.045
2,FSCRRISFFLLV,0.176 ± 0.012
3,FSPLVCLLFFLF,0.333 ± 0.019
4,FSRFPFVKLSLV,0.197 ± 0.048
5,FSSWPFFSFYLS,0.392 ± 0.024
6,FSVRLCLFVWGC,0.317 ± 0.015
7,FSYFFIFFYMVC,0.147 ± 0.035
8,FVGVVCILWLVG,0.176 ± 0.026
9,FVLFSIFHFFLW,0.347 ± 0.016
10,FVLSLGQLVFIF,0.397 ± 0.029
11,FVSAFVCLLCLV,0.377 ± 0.016
12,FVSFTVSFSVVV,0.342 ± 0.0055
13,FVVIFRFSRFSA,0.326 ± 0.0097
14,FWYIRIRLAVVA,0.0257 ± 0.0096
15,FYIWFFRLIYFF,0.331 ± 0.01
16,FYTYILTVAEAL,0.455 ± 0.014
17,GALVVSWAEVLC,0.402 ± 0.037
18,GCLSFVAAVHLH,0.332 ± 0.028
19,GCRLRHRLVRIV,0.119 ± 0.044
20,GESCGGSERRVG,0.666 ± 0.031
21,GFGRDHGNDTGP,0.648 ± 0.02
22,GFRVPVVVGVRG,0.33 ± 0.042
23,GFSSRWLMQYMV,0.375 ± 0.11
24,GGGGGGGGGGVG,0.387 ± 0.024
25,GGGVGVAVVLFW,0.342 ± 0.02
26,GGGVWWGVLVLG,0.309 ± 0.033

row,Sequence,protein stability index
1,GGGWAVLLWVQV,0.317 ± 0.017
2,GGVVGGVGVYDG,0.65 ± 0.02
3,GGWGVFGVWVWM,0.214 ± 0.031
4,GGYVTVTSVTVV,0.506 ± 0.011
5,GHYQGVCHRRIC,0.176 ± 0.024
6,GIISMYVARRLG,0.173 ± 0.034
7,GKVGGRMWVWRV,0.129 ± 0.019
8,GLGVIFFLLGYG,0.327 ± 0.016
9,GLLFWSGVVSWV,0.263 ± 0.038
10,GLLVFRCINLRC,0.357 ± 0.03
11,GLPGYAWGRSGG,0.775 ± 0.029
12,GLSLVCWIVVLG,0.178 ± 0.032
13,GLVVMFVIAGGG,0.299 ± 0.034
14,GMGRVLVEVLLC,0.101 ± 0.021
15,GMLIYVIGGLSH,0.4464 ± 0.0034
16,GMMLLRFIIRWY,0.134 ± 0.03
17,GPFVRSALIFIF,0.343 ± 0.026
18,GRAVGLANFTIK,0.68 ± 0.042
19,GRCGGPRSLGVG,0.538 ± 0.012
20,GSGCLFNRWRIL,0.196 ± 0.027
21,GSLLWSGWSTCY,0.693 ± 0.022
22,GSWGGGWRYVGW,0.685 ± 0.023
23,GTSDLIALLMLT,0.403 ± 0.045
24,GTWCLAMARFCA,0.375 ± 0.025
25,GVFVVVGEASVH,0.406 ± 0.017
26,GVFVWVVFVCTM,0.201 ± 0.013

# Same assay, conditions: genetic background: wild type; temperature: 37 C
row,Sequence,protein stability index
1,FFFFFIHFLCYF,0.357 ± 0.0053
2,FFFFFLLFFLRV,0.313 ± 0.0043
3,FFFFLVPVHCVI,0.406 ± 0.018
4,FFFFSVHLSFLD,0.305 ± 0.024
5,FFFLILFPLSYS,0.513 ± 0.041
6,FFFLVRLCRLCV,0.353 ± 0.0078
7,FFIMFFDFWGYF,0.57 ± 0.028
8,FFLRFGLFLFTL,0.4928 ± 0.0041
9,FFSCFFFSVLYR,0.384 ± 0.018
10,FFVYRFFSLSVC,0.0647 ± 0.011
11,FGCCLYFCFWGL,0.491 ± 0.016
12,FHLVIYWCVRGP,0.474 ± 0.034
13,FICYDRILTVYY,0.489 ± 0.031
14,FIVVSFCFFLFF,0.414 ± 0.013
15,FKFGVFDFRFLC,0.115 ± 0.031
16,FLFFLFVVFVFV,0.3692 ± 0.0023
17,FLFFRFLVGCCF,0.427 ± 0.017
18,FLIFFVCLFRWK,0.301 ± 0.0041
19,FLLLDFMLVSLV,0.521 ± 0.037
20,FLLLVVYVSLYS,0.224 ± 0.034
21,FLLSFFGLVFFW,0.449 ± 0.024
22,FLPLFFLPCLSV,0.413 ± 0.0059
23,FLSPPPFLALLP,0.717 ± 0.014
24,FLSRHFLFLSFV,0.443 ± 0.006
25,FPFHSRPCLPVL,0.5723 ± 0.0015
26,FPTLVRKFINAI,0.123 ± 0.018

row,Sequence,protein stability index
1,FRRSFPFPLFLR,0.219 ± 0.0033
2,FSCRRISFFLLV,0.26 ± 0.015
3,FSPLVCLLFFLF,0.4778 ± 0.0016
4,FSRFPFVKLSLV,0.306 ± 0.012
5,FSSWPFFSFYLS,0.6048 ± 0.0018
6,FSVRLCLFVWGC,0.4483 ± 0.0025
7,FSYFFIFFYMVC,0.228 ± 0.0028
8,FVGVVCILWLVG,0.318 ± 0.073
9,FVLFSIFHFFLW,0.47 ± 0.0094
10,FVLSLGQLVFIF,0.548 ± 0.013
11,FVSAFVCLLCLV,0.4877 ± 0.00084
12,FVSFTVSFSVVV,0.382 ± 0.0063
13,FVVIFRFSRFSA,0.494 ± 0.037
14,FWYIRIRLAVVA,0.0826 ± 0.01
15,FYIWFFRLIYFF,0.453 ± 0.012
16,FYTYILTVAEAL,0.5273 ± 0.0011
17,GALVVSWAEVLC,0.57 ± 0.02
18,GCLSFVAAVHLH,0.528 ± 0.034
19,GCRLRHRLVRIV,0.201 ± 0.011
20,GESCGGSERRVG,0.6897 ± 0.0056
21,GFGRDHGNDTGP,0.725 ± 0.0097
22,GFRVPVVVGVRG,0.4999 ± 0.0013
23,GFSSRWLMQYMV,0.462 ± 0.042
24,GGGGGGGGGGVG,0.446 ± 0.03
25,GGGVGVAVVLFW,0.5056 ± 0.0016
26,GGGVWWGVLVLG,0.4678 ± 0.0034

row,Sequence,protein stability index
1,GGGWAVLLWVQV,0.442 ± 0.007
2,GGVVGGVGVYDG,0.706 ± 0.015
3,GGWGVFGVWVWM,0.422 ± 0.012
4,GGYVTVTSVTVV,0.611 ± 0.015
5,GHYQGVCHRRIC,0.368 ± 0.033
6,GIISMYVARRLG,0.3 ± 0.022
7,GKVGGRMWVWRV,0.2406 ± 0.0022
8,GLGVIFFLLGYG,0.551 ± 0.051
9,GLLFWSGVVSWV,0.504 ± 0.014
10,GLLVFRCINLRC,0.471 ± 0.017
11,GLPGYAWGRSGG,0.7221 ± 0.0024
12,GLSLVCWIVVLG,0.318 ± 0.0055
13,GLVVMFVIAGGG,0.464 ± 0.015
14,GMGRVLVEVLLC,0.0812 ± 0.017
15,GMLIYVIGGLSH,0.626 ± 0.019
16,GMMLLRFIIRWY,0.212 ± 0.0061
17,GPFVRSALIFIF,0.547 ± 0.022
18,GRAVGLANFTIK,0.7006 ± 0.0042
19,GRCGGPRSLGVG,0.5853 ± 0.0057
20,GSGCLFNRWRIL,0.46 ± 0.0074
21,GSLLWSGWSTCY,0.763 ± 0.0077
22,GSWGGGWRYVGW,0.759 ± 0.011
23,GTSDLIALLMLT,0.601 ± 0.007
24,GTWCLAMARFCA,0.606 ± 0.039
25,GVFVVVGEASVH,0.564 ± 0.011
26,GVFVWVVFVCTM,0.315 ± 0.028
